What was measured:
[1] = molecular target: HLA-B*44:03; assay: IEDB peptide-MHC binding, purified MHC/competitive/radioactivity; filed as Kd, often an IC50 or EC50 that approximates it; ≥ and ≤ were set here for values at or beyond the usual limits of such assays
[2] = molecular target: HLA-B*45:01; assay: as above
[3] = molecular target: HLA-B*40:01; assay: as above
[4] = molecular target: HLA-B*44:02; assay: as above
[5] = molecular target: HLA-B*40:02; assay: as above
[6] = molecular target: HLA-B*18:01; assay: as above
[7] = molecular target: HLA-A*01:01; assay: IEDB peptide-MHC binding, purified MHC/direct/fluorescence; filed as Kd, often an IC50 or EC50 that approximates it; ≥ and ≤ were set here for values at or beyond the usual limits of such assays
[8] = molecular target: HLA-B*07:02; assay: as above
[9] = molecular target: HLA-B*27:05; assay: as above
[10] = molecular target: HLA-B*08:01; assay: as above
[11] = molecular target: HLA-A*69:01; assay: as above
[12] = molecular target: HLA-A*11:01; assay: as above
[13] = molecular target: HLA-A*31:01; assay: as above
[14] = molecular target: HLA-B*40:01; assay: as above
[15] = molecular target: HLA-A*26:01; assay: as above
[16] = molecular target: HLA-B*44:02; assay: as above
[17] = molecular target: HLA-A*03:01; assay: as above
[18] = molecular target: HLA-B*58:01; assay: as above
[19] = molecular target: HLA-A*02:01; assay: as above
[20] = molecular target: HLA-A*24:03; assay: as above
[21] = molecular target: HLA-B*15:01; assay: as above
[22] = molecular target: HLA-A*68:02; assay: IEDB peptide-MHC binding, purified MHC/competitive/radioactivity; filed as Kd, often an IC50 or EC50 that approximates it; ≥ and ≤ were set here for values at or beyond the usual limits of such assays
[23] = molecular target: HLA-A*02:02; assay: as above
[24] = molecular target: HLA-A*02:06; assay: as above
[25] = molecular target: HLA-A*02:03; assay: as above
[26] = molecular target: HLA-A*26:01; assay: as above; settings: source organism: Dengue virus 2 Jamaica/1409/1983
[27] = molecular target: HLA-A*02:01; assay: as above; settings: source organism: Trypanosoma cruzi
[28] = source organism: Lassa virus Josiah
[29] = source organism: Shigella dysenteriae
[30] = source organism: Mammarenavirus choriomeningitidis
[31] = source organism: SARS coronavirus Tor2
[32] = source organism: Rickettsia sibirica
[33] = source organism: Dengue virus 4 Philippines/H241/1956
[34] = source organism: Trypanosoma cruzi
[35] = source organism: Vibrio vulnificus

Sequence: AELLNNQFGT
- Kd [1, 28]: 16.6 µM
- Kd [2, 28]: 11.4 µM
- Kd [3, 28]: 2.32 µM
- Kd [4, 28]: 3.24 µM
- Kd [5, 28]: 1.12 µM
- Kd [6, 28]: ≥ 70.4 µM

Sequence: AEMRETHWL
- Kd [7, 29]: ≥ 20 µM
- Kd [8, 29]: ≥ 20 µM
- Kd [9, 29]: ≥ 20 µM
- Kd [10, 29]: ≥ 20 µM
- Kd [11, 29]: ≥ 20 µM
- Kd [12, 29]: ≥ 20 µM
- Kd [13, 29]: ≥ 20 µM
- Kd ([14]; source organism: Escherichia coli): 0.00621 µM
- Kd [15, 29]: ≥ 20 µM
- Kd [16, 29]: 2 µM
- Kd [17, 29]: ≥ 20 µM
- Kd [18, 29]: ≥ 20 µM
- Kd [19, 29]: ≥ 20 µM

Sequence: AEQLMSLAA
- Kd [1, 30]: 4.48 µM
- Kd [2, 30]: 0.0017 µM
- Kd [3, 30]: 1.85 µM
- Kd [4, 30]: 0.214 µM
- Kd [5, 30]: 0.00331 µM
- Kd [6, 30]: 3.64 µM

Sequence: AEVQIDRLI
- Kd [1, 31]: 0.094 µM
- Kd [2, 31]: 0.985 µM
- Kd [3, 31]: 10.9 µM
- Kd [4, 31]: 0.0901 µM
- Kd [5, 31]: 0.0924 µM
- Kd [6, 31]: ≥ 77.5 µM

Sequence: ASDRISGIL
- Kd [7, 32]: 6.55 µM
- Kd [8, 32]: 14.6 µM
- Kd [9, 32]: ≥ 20 µM
- Kd [10, 32]: ≥ 20 µM
- Kd [11, 32]: ≥ 20 µM
- Kd [12, 32]: ≥ 20 µM
- Kd [13, 32]: ≥ 20 µM
- Kd [14, 32]: 1.46 µM
- Kd [20, 32]: ≥ 20 µM
- Kd [15, 32]: ≥ 20 µM
- Kd [16, 32]: ≥ 20 µM
- Kd [21, 32]: 5.16 µM
- Kd [17, 32]: ≥ 20 µM
- Kd [18, 32]: ≥ 20 µM
- Kd [19, 32]: ≥ 20 µM

Sequence: DLENRCQSL
- Kd ([22]; source organism: Homo sapiens): ≥ 107 µM
- Kd ([23]; source organism: Homo sapiens): 12.4 µM
- Kd ([24]; source organism: Homo sapiens): ≥ 78.7 µM
- Kd ([25]; source organism: Homo sapiens): ≥ 32.8 µM

Sequence: EDQFLPFMS
- Kd [1, 30]: ≥ 39.6 µM
- Kd [2, 30]: ≥ 23.9 µM
- Kd [3, 30]: 5.67 µM
- Kd [4, 30]: 17.4 µM
- Kd [5, 30]: 7.96 µM
- Kd [6, 30]: ≥ 77.5 µM

Sequence: EEAALCTFLL
- Kd [1, 31]: 0.0131 µM
- Kd [2, 31]: 0.089 µM
- Kd [3, 31]: 0.0437 µM
- Kd [4, 31]: 0.0216 µM
- Kd [5, 31]: 0.0177 µM
- Kd [6, 31]: 0.163 µM

Sequence: ESLETLMLV
- Kd [22, 33]: 0.162 µM

Sequence: ETACLGKSYA
- Kd ([22]; source organism: Dengue virus 2 Jamaica/1409/1983): 0.00748 µM
- Kd [26]: 0.163 µM

Sequence: FANHAFTLV
- Kd [22, 34]: 0.0232 µM
- Kd [23, 34]: 0.0327 µM
- Kd [24, 34]: 0.0012 µM
- Kd [25, 34]: 0.000226 µM
- Kd [27]: 0.0687 µM

Sequence: GSEVPGFCH
- Kd [7, 35]: ≥ 20 µM
- Kd [8, 35]: ≥ 20 µM
- Kd [9, 35]: ≥ 20 µM
- Kd [10, 35]: ≥ 20 µM
- Kd [11, 35]: ≥ 20 µM
- Kd [12, 35]: ≥ 20 µM
- Kd [13, 35]: ≥ 20 µM
- Kd [14, 35]: ≥ 20 µM
- Kd [20, 35]: ≥ 20 µM
- Kd [15, 35]: ≥ 20 µM
- Kd [16, 35]: ≥ 20 µM
- Kd [21, 35]: ≥ 20 µM
- Kd [17, 35]: ≥ 20 µM
- Kd [18, 35]: ≥ 20 µM
- Kd [19, 35]: ≥ 20 µM

Sequence: IDYDCVSFCY
- Kd [1, 31]: 0.759 µM
- Kd [2, 31]: 5.8 µM
- Kd [3, 31]: 10.5 µM
- Kd [4, 31]: 1.55 µM
- Kd [5, 31]: ≥ 38.5 µM
- Kd [6, 31]: 3 µM

Sequence: ITVSGLYPL
- Kd [22, 33]: 0.0123 µM
